Data on three substances can be found in PMC4019695.

Where only a bound is given, the exact number is not on record here.

A word on the Kd: it is the free concentration of one partner at which half of the binding sites on the other are occupied at equilibrium, for simple one-to-one binding. Lower therefore signals a tighter complex.

Experiment [1] has as its target Drosophila 80S ribosome (Drosophila (endogenous in fly embryos)) (UniProt P46222). Description: SEC.
The target is the same in experiment [2]. Description: FRET or BRET.

The substance “NT-dFMRP KH1 (I244N) mutant (from UniProt Q9NFU0 220-681) (domain or fragment)” gave a fold reduction of binding against NT-dFMRP in experiment [1] of 2 fold. In experiment [2], the Kd worked out at 130 nM.
As to “NT-dFMRP KH2 (I307N) mutant (from UniProt Q9NFU0 220-681) (domain or fragment)”, the dissociation constant Kd in experiment [2] amounted to 61 nM.
In experiment [2], “NT-dFMRP ΔRGG mutant, residues 220-413 (from UniProt Q9NFU0 220-413) (domain or fragment)” had a dissociation constant (Kd) of over 2000 nM.
